Among the targets are SALPR fused to PK2 (UniProt Q9NSD7); PTHR2 fused to PK2 (UniProt P49190); MC3R fused to PK2 (UniProt P41968); SSTR1 fused to PK1 (UniProt P30872); SSTR1 fused to PK2 (UniProt P30872); SSTR4 fused to PK1 (UniProt P31391); SSTR4 fused to PK2 (UniProt P31391).
Holding throughout (assay): cell-based or functional assay
The next assay deals with T1, CCR6 fused to PK1 (UniProt P51684).
T1 sequence (looked up): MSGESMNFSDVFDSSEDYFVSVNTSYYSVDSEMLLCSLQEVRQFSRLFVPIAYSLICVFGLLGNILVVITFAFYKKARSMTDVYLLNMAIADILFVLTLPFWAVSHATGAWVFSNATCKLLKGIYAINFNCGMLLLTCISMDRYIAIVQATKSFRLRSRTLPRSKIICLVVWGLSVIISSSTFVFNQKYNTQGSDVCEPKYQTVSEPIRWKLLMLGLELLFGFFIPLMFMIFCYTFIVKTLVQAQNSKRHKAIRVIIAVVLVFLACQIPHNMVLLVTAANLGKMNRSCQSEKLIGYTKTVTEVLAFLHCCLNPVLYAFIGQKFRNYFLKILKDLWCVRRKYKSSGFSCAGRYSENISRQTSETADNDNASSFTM

In another assay the target is T2, CCR6 fused to PK2 (UniProt P51684).
T2 sequence (P51684 whole entry, species assumed, looked up): T1 sequence (looked up)

The target of the next assay is T3, CCR4 fused to PK1 (UniProt P51679).
T3 sequence (looked up): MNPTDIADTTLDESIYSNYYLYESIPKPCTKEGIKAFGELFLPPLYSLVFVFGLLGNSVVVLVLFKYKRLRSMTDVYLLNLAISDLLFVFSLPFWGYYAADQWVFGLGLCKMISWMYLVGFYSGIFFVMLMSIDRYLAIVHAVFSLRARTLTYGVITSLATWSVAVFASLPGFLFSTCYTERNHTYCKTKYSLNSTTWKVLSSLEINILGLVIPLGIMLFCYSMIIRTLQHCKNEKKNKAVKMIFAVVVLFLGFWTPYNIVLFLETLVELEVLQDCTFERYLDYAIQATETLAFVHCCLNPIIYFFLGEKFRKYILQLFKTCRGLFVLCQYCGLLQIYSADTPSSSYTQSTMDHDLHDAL

The next assay addresses T4, CCR4 fused to PK2 (UniProt P51679).
T4 sequence (P51679 whole entry, species assumed, looked up): T3 sequence (looked up)

For the next assay, the target named is T5, CRHR2 fused to PK1 (UniProt Q13324).
T5 sequence (looked up): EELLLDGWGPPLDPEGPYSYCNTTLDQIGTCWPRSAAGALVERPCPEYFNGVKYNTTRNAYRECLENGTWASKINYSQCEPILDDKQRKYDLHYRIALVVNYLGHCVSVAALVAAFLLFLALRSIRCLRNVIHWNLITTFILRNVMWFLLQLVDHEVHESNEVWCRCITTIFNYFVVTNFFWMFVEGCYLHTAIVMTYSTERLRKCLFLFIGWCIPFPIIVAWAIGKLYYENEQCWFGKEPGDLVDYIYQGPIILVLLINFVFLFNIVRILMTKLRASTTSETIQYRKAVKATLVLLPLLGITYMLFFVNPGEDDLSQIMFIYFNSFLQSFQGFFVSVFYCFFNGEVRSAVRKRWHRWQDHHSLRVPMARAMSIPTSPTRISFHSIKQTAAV

A further assay deals with T6, CRHR2 fused to PK2 (UniProt Q13324).
T6 sequence (Q13324 whole entry, species assumed, looked up): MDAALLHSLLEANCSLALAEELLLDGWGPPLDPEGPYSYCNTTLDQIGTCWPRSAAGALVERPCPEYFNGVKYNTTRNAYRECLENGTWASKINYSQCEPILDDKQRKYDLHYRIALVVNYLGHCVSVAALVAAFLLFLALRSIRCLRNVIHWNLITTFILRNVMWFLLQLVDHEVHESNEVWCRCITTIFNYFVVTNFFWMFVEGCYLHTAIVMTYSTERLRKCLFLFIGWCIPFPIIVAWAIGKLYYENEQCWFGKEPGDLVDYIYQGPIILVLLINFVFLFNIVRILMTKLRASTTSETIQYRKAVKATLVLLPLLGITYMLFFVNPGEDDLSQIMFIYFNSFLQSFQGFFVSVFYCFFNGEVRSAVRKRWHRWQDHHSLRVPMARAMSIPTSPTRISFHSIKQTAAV

In patent publication US20090098588A1 one finds Fold induct. (arrestin recruitment, beta-galactosidase EFC, saturating ligand) data, which are given here for nine molecules.

PTHR2 fused to PK2, sequence (P49190 whole entry, the tested form may be a part): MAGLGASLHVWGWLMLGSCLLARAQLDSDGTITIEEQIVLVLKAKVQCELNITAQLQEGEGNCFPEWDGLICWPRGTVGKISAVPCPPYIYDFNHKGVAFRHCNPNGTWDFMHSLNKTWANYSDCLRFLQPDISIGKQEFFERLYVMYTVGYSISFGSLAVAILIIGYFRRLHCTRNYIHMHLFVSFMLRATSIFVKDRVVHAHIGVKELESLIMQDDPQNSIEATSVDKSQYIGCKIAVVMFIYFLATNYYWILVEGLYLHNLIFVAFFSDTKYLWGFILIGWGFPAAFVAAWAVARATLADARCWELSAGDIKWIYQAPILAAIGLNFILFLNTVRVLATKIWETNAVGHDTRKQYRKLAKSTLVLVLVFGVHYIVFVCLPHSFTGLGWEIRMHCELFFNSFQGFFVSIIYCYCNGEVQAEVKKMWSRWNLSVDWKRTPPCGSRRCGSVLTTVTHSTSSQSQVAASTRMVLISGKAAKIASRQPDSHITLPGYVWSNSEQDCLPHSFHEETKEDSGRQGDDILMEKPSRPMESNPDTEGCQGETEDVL
SSTR1 fused to PK1, sequence (P30872 whole entry, the tested form may be a part): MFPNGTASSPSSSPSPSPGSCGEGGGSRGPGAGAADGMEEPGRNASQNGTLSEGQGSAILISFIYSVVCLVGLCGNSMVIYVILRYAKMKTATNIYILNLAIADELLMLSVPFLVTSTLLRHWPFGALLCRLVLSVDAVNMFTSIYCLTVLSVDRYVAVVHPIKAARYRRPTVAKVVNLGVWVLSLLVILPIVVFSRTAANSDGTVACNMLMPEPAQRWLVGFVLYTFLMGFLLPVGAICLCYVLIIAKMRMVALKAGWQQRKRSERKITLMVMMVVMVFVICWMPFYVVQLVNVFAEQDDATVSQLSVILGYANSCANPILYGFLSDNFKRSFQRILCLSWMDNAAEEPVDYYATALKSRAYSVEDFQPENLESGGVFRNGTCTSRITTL
SALPR fused to PK2, sequence (Q9NSD7 whole entry, the tested form may be a part): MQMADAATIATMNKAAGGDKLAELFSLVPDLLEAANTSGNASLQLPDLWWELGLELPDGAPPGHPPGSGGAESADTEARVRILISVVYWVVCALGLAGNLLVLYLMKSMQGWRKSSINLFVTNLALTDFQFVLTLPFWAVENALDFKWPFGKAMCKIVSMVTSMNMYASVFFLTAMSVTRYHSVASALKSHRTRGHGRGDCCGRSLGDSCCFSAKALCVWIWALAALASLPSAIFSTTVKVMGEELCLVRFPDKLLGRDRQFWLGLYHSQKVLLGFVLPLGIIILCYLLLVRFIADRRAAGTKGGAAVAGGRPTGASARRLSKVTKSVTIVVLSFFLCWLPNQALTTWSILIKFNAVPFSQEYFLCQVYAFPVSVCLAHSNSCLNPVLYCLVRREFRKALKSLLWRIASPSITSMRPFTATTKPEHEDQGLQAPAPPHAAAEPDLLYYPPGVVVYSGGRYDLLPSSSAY
SSTR1 fused to PK2, sequence (P30872 whole entry, the tested form may be a part): as the sequence (P30872 whole entry, the tested form may be a part) above
MC3R fused to PK2, sequence (P41968 whole entry, the tested form may be a part): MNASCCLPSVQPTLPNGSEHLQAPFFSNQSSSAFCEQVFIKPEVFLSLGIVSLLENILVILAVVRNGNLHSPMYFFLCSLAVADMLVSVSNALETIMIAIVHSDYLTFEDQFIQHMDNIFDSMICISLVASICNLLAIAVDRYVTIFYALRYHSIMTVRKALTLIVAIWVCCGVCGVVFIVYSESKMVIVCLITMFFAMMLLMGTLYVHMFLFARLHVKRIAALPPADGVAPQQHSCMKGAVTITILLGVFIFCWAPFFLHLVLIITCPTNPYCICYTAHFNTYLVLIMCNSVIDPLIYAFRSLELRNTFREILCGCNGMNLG
SSTR4 fused to PK1, sequence (P31391 whole entry, the tested form may be a part): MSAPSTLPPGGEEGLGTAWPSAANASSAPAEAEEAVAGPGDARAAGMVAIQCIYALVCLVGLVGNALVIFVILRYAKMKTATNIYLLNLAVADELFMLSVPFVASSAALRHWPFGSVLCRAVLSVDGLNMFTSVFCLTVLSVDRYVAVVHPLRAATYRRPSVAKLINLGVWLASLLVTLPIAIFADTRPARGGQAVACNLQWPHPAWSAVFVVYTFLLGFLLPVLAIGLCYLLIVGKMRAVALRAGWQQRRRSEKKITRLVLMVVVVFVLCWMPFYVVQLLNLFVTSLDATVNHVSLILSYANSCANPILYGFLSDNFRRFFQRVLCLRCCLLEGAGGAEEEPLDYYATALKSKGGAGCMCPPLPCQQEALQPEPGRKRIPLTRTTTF
SSTR4 fused to PK2, sequence (P31391 whole entry, the tested form may be a part): as above

Take “Relaxin-3 (from UniProt Q8WXF3 26-142) (ligand)”: in the assay with SALPR fused to PK2, the Fold induct. (arrestin recruitment, beta-galactosidase EFC, saturating ligand) was 1.8 fold. With “CCL20 (from UniProt P78556 27-96) (ligand)”, the Fold induct. (arrestin recruitment, beta-galactosidase EFC, saturating ligand) with CCR6 fused to PK1 was determined as 1.4 fold; in the assay with CCR6 fused to PK2, 6.5 fold.

Consider “PTH (1-34) (from UniProt P01270 32-65) (peptide)”, for which, in the assay with PTHR2 fused to PK2, the Fold induct. (arrestin recruitment, beta-galactosidase EFC, saturating ligand) was found to be 72.9 fold. Consider “aMSH (from UniProt P01189 138-150) (peptide)”, for which the Fold induct. (arrestin recruitment, beta-galactosidase EFC, saturating ligand) in the assay with MC3R fused to PK2 was determined as 3.2 fold.

As to TYR-SRIF14 (peptide), the Fold induct. (arrestin recruitment, beta-galactosidase EFC, saturating ligand) in the assay with SSTR1 fused to PK1 stood at 1 fold.

B1: CCL22 (ligand, UniProt O00626 25-93, looked up)
chain: GPYGANMEDSVCCRDYVRYRLPLRVVKHFYWTSDSCPRPGVVLLTFRDKEICADPRVPWVKMILNKLSQ
Turning to B1, the Fold induct. (arrestin recruitment, beta-galactosidase EFC, saturating ligand) in the assay with CCR4 fused to PK1 is 18.9 fold; with CCR4 fused to PK2 it was 3 fold. In the assay with PTHR2 fused to PK2, SLALADDAAFRERARLLAALERRHWLNSYMHKLLVLDAP (peptide, UniProt Q96A98 62-100, looked up) [TIP39] returned a Fold induct. (arrestin recruitment, beta-galactosidase EFC, saturating ligand) of 2.8 fold. On to QGPPISIDLSLELLRKMIEIEKQEKEKQQAANNRLLLDTI (peptide, UniProt P01144 1-40, looked up) [Sauvagine], for which the Fold induct. (arrestin recruitment, beta-galactosidase EFC, saturating ligand) in the assay with CRHR2 fused to PK1 was 13.1 fold; with CRHR2 fused to PK2, 17.4 fold. In the case of SANSNPAMAPRERKAGCKNFFWKTFTSC (peptide, UniProt P61278 89-116, looked up) [Somatostatin-28], the Fold induct. (arrestin recruitment, beta-galactosidase EFC, saturating ligand) was 1.2 fold with SSTR1 fused to PK1, 1.3 fold with SSTR1 fused to PK2, 1.3 fold with SSTR4 fused to PK1 and 1.6 fold with SSTR4 fused to PK2.
